Results from the supplement of paper PMC10724198.
± gives the standard deviation of the averaged measurements.

test system: Saccharomyces cerevisiae; assay: protein stability index of tFT-peptide fusion (C-terminal peptide) (PSI (0-1 scale)); higher = more stable (slower turnover); details: genetic background: wild type; temperature: 30 C
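Also: PSI is a weighted mean of sequencing reads over stability bins, variants kept only with over 10 reads, mCherry proximal and sfGFP distal, peptide attached via GGGS linker.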

VFVGGGCRGFCL and VFVPPPPSPSSL are within error of each other in protein stability index: 0.624 ± 0.075 for the first, 0.683 ± 0.01 for the second.

VFYLNLLNQTRV and VGAFCLLLGFEG are within error of each other in protein stability index: 0.629 ± 0.016 for the first, 0.599 ± 0.038 for the second.

VGGAVGAVGGGG and VGGCRVRDVAGE are within error of each other in protein stability index: 0.651 ± 0.02 for the first, 0.686 ± 0.042 for the second.

Going from VGGCVVSFSANR to VGGGGSLVVESG, the protein stability index rises from 0.657 ± 0.043 to 0.70581 ± 0.00064.

First: VGGIGKGSWRWM
Second: VGGVDMCGARVV
The protein stability index of the first is lower: 0.6466 ± 0.0034 for the first, 0.754 ± 0.032 for the second.

Going from VGGVWWGGWGHW to VGHVVVRLWPHE, the protein stability index falls from 0.733 ± 0.039 to 0.665 ± 0.013.

VGKVRGLEAVEE and VGLPPVAGLVTG are within error of each other in protein stability index: 0.683 ± 0.0052 for the first, 0.751 ± 0.073 for the second.

VGRERGRAACGE and VGRGEEYYGMEV are within error of each other in protein stability index: 0.662 ± 0.049 for the first, 0.634 ± 0.0066 for the second.

VGSRLVYSAFNV and VGSTKMRYFGEG are within error of each other in protein stability index: 0.69 ± 0.01 for the first, 0.692 ± 0.018 for the second.

VGVCVGWDGRLW and VGVGGGSVASCV are within error of each other in protein stability index: 0.691 ± 0.025 for the first, 0.671 ± 0.018 for the second.

VGVRGGRFWAGA and VHHHQTTCHRHR are the same in protein stability index: 0.682 ± 0.018 for the first, 0.682 ± 0.018 for the second.

Compared with VHKMAARGATRL, VHVSRHGSSIAF is higher in protein stability index: 0.647 ± 0.036 for the first, 0.74 ± 0.008 for the second.

First: VIDLIYSMKVRR
Second: VIKRQSERRYLV
The protein stability index of the first is higher: 0.688 ± 0.034 for the first, 0.587 ± 0.039 for the second.

VIMGLKYYRKCE and VIQKHAMGDALL are within error of each other in protein stability index: 0.658 ± 0.014 for the first, 0.699 ± 0.03 for the second.

VISLPWRPKSWW and VIWAPVLAFSVR are within error of each other in protein stability index: 0.739 ± 0.07 for the first, 0.638 ± 0.051 for the second.

VKEKRDLSNYNI and VKGLFLHFLESS are within error of each other in protein stability index: 0.677 ± 0.037 for the first, 0.695 ± 0.042 for the second.

VKGVGNTAGRGV and VLAFSPCPPPPP are within error of each other in protein stability index: 0.659 ± 0.023 for the first, 0.657 ± 0.026 for the second.

VLAGLTWQIAEL and VLEAIIFRKHDN are within error of each other in protein stability index: 0.668 ± 0.023 for the first, 0.74 ± 0.14 for the second.

Going from VLFCSVSFGGGQ to VLGFLGWPCSSS, the protein stability index rises from 0.614 ± 0.091 to 0.76 ± 0.0078.

VLGKIIKLSTYS and VLHAGACARANR are within error of each other in protein stability index: 0.629 ± 0.059 for the first, 0.708 ± 0.043 for the second.

Going from VLIAIIRYGPYT to VLLATPFSAIFR, the protein stability index rises from 0.538 ± 0.0021 to 0.6907 ± 0.0057.

Compared with VLLGSEGGVQSR, VLLLSPPLRPCP is higher in protein stability index: 0.646 ± 0.011 for the first, 0.69 ± 0.024 for the second.

VLNSTSFLNKNL and VLRPVSCTKLAA are within error of each other in protein stability index: 0.712 ± 0.059 for the first, 0.656 ± 0.083 for the second.

VLRRADLGYPRV and VLRRALIIELLE are within error of each other in protein stability index: 0.663 ± 0.048 for the first, 0.66 ± 0.025 for the second.

VLRVWGCGEVGV and VLSFLSSFFVRV are within error of each other in protein stability index: 0.69 ± 0.019 for the first, 0.65 ± 0.079 for the second.

VLSLLPFSPFSP and VLSRPLSFPAGI are within error of each other in protein stability index: 0.735 ± 0.096 for the first, 0.61 ± 0.047 for the second.

VLTPLPWSRCSP and VLVSSLSSSKFF are within error of each other in protein stability index: 0.7017 ± 0.0061 for the first, 0.647 ± 0.088 for the second.

VLVTWLESVGGL and VLVVFVGDSSKR are within error of each other in protein stability index: 0.634 ± 0.027 for the first, 0.662 ± 0.039 for the second.

Going from VLYGRFSLLGWC to VMFACAGVETRR, the protein stability index rises from 0.595 ± 0.042 to 0.745 ± 0.037.

VMGAGGGSRSRV and VMTRNERGQERK are within error of each other in protein stability index: 0.677 ± 0.037 for the first, 0.675 ± 0.038 for the second.

First: VMVTYCSEVQDR
Second: VNGLVLFEYLMV
The protein stability index of the first is higher: 0.693 ± 0.011 for the first, 0.579 ± 0.029 for the second.

Compared with VNILRVYHVARA, VNPWLRCSFRFW is higher in protein stability index: 0.564 ± 0.097 for the first, 0.6881 ± 0.0066 for the second.

Compared with VNRDYLGTNKSS, VNTNLRSTRSNT is higher in protein stability index: 0.604 ± 0.017 for the first, 0.7271 ± 0.0061 for the second.

VNVCIAEYGNDR and VPFPFLPPSPSL are within error of each other in protein stability index: 0.768 ± 0.062 for the first, 0.87 ± 0.14 for the second.

Going from VPFVGLGLKVRV to VPGFARLFGLLD, the protein stability index rises from 0.6236 ± 0.0057 to 0.737 ± 0.047.

VPGFCYKERAVV and VPGQRRPSQSPR are within error of each other in protein stability index: 0.673 ± 0.034 for the first, 0.653 ± 0.21 for the second.

Going from VPISLSVVVLPV to VPKRLLSFDQGG, the protein stability index rises from 0.569 ± 0.017 to 0.6801 ± 0.0032.

VPLSALPPPPPA and VPPDTAPPPPRR are within error of each other in protein stability index: 0.703 ± 0.027 for the first, 0.6994 ± 0.0055 for the second.

VPPPLRPLPPPP and VPPSPPRPPPPS are within error of each other in protein stability index: 0.629 ± 0.14 for the first, 0.697 ± 0.053 for the second.

VPRAVACDCVLL and VPSPRHFPLPPP are within error of each other in protein stability index: 0.6845 ± 0.0051 for the first, 0.647 ± 0.049 for the second.

Compared with VPTSLGAYLRMV, VPWTPPRVERVP is higher in protein stability index: 0.511 ± 0.014 for the first, 0.737 ± 0.036 for the second.

Compared with VQCSLWYARLIL, VQLGRRGQAVEP is higher in protein stability index: 0.513 ± 0.033 for the first, 0.7 ± 0.036 for the second.

Going from VQRFLGSCPLSI to VQSLCGDCGCCL, the protein stability index rises from 0.611 ± 0.051 to 0.735 ± 0.04.

First: VRERWNTKKKKK
Second: VRGLGVIGVCVL
The protein stability index of the first is lower: 0.64 ± 0.057 for the first, 0.741 ± 0.019 for the second.

VRGLHRRFEPSN and VRGLYEHSLGSR are within error of each other in protein stability index: 0.8 ± 0.088 for the first, 0.741 ± 0.066 for the second.

VRIARSYERGGK and VRLPLHHPIPNS are within error of each other in protein stability index: 0.701 ± 0.059 for the first, 0.7179 ± 0.0063 for the second.

VRPCLYPCSRTV and VRRGGGHRWVVW are within error of each other in protein stability index: 0.708 ± 0.03 for the first, 0.705 ± 0.016 for the second.

VRRQADRAGRIS and VRRVRGSKFFWR are within error of each other in protein stability index: 0.696 ± 0.073 for the first, 0.609 ± 0.12 for the second.

Compared with VRSCGTAGKGVT, VRTHRVRARAVE is higher in protein stability index: 0.615 ± 0.029 for the first, 0.685 ± 0.019 for the second.

Compared with VRTLGPLRPEGL, VRVEVVVFEGAG is lower in protein stability index: 0.74 ± 0.068 for the first, 0.598 ± 0.034 for the second.

Going from VRVGNYTRARCK to VRVSPDVYGSFM, the protein stability index falls from 0.714 ± 0.035 to 0.5897 ± 0.0057.

VRWISVGNGGVR and VRYRSGLVFEGV are within error of each other in protein stability index: 0.725 ± 0.013 for the first, 0.747 ± 0.039 for the second.

VSCGVSEGDVVC and VSFCRVLQSSQS are within error of each other in protein stability index: 0.675 ± 0.031 for the first, 0.692 ± 0.021 for the second.

VSFLVPRYLFSG and VSFNPAGYKSRN are within error of each other in protein stability index: 0.654 ± 0.16 for the first, 0.671 ± 0.042 for the second.

First: VSFRAMDRLTSR
Second: VSGDPWMWDVFI
The protein stability index of the first is lower: 0.6171 ± 0.0023 for the first, 0.746 ± 0.036 for the second.

First: VSGFPHASSSPT
Second: VSGGGAPRSVWR
The protein stability index of the first is lower: 0.6225 ± 0.0052 for the first, 0.706 ± 0.0083 for the second.

VSGGGWDSCLSV and VSGGRLVGWGGW are within error of each other in protein stability index: 0.724 ± 0.0082 for the first, 0.731 ± 0.12 for the second.

Going from VSHCLLRAFSDC to VSHGPAIHALSI, the protein stability index rises from 0.556 ± 0.011 to 0.669 ± 0.028.

First: VSIPRTLFITRF
Second: VSIVTLSLSNFA
The protein stability index of the first is higher: 0.67018 ± 0.00016 for the first, 0.611 ± 0.0072 for the second.

Going from VSLALYSSVSIC to VSLCGSGLGLWV, the protein stability index rises from 0.5382 ± 0.0049 to 0.682 ± 0.033.

Going from VSLCYGGGFWGR to VSLFETIPVLSR, the protein stability index falls from 0.698 ± 0.018 to 0.605 ± 0.014.

VSLLIPVGVYPR and VSLPGTWSSLSA are within error of each other in protein stability index: 0.667 ± 0.015 for the first, 0.6554 ± 0.0064 for the second.

VSNVSGKEYINV and VSPAPSAILRLD are within error of each other in protein stability index: 0.681 ± 0.038 for the first, 0.6765 ± 0.0025 for the second.

VSPDVYGVCLRL and VSPLDSPASLYS are within error of each other in protein stability index: 0.703 ± 0.081 for the first, 0.6573 ± 0.0062 for the second.

Going from VSPPLHFLPLHF to VSRGGVAYGRVG, the protein stability index rises from 0.6661 ± 0.004 to 0.742 ± 0.049.

First: VSRQHLPAVLHL
Second: VSSSQPGEYNIG
The protein stability index of the first is lower: 0.661 ± 0.024 for the first, 0.7088 ± 0.0029 for the second.

VSSSSPSNFIPL and VSTENDGCGTPR are within error of each other in protein stability index: 0.666 ± 0.093 for the first, 0.712 ± 0.022 for the second.

VSVGWWVGFWGV and VSVRLWSGQSAG are within error of each other in protein stability index: 0.6968 ± 0.0051 for the first, 0.672 ± 0.11 for the second.

Compared with VSWFVGFCLWFP, VTDSRAIMARRV is higher in protein stability index: 0.5506 ± 0.0025 for the first, 0.645 ± 0.083 for the second.

VTEWGVKWWEDR and VTKAALADLRHM are within error of each other in protein stability index: 0.714 ± 0.11 for the first, 0.609 ± 0.016 for the second.

First: VTLFGVFQGFVG
Second: VTLGQNGVSLRS
The protein stability index of the first is higher: 0.709 ± 0.02 for the first, 0.596 ± 0.071 for the second.

VVAIGRVWGERA and VVATRYGGCFRR are within error of each other in protein stability index: 0.68 ± 0.059 for the first, 0.669 ± 0.04 for the second.

Going from VVCKVLVTGIFD to VVDGSILTIRCL, the protein stability index rises from 0.604 ± 0.0062 to 0.6226 ± 0.0048.

VVDPDVIGREIR and VVECGERWWCLT are within error of each other in protein stability index: 0.706 ± 0.014 for the first, 0.705 ± 0.032 for the second.

VVEGVFGQRFAG and VVFKPHEVRTSD are within error of each other in protein stability index: 0.701 ± 0.033 for the first, 0.717 ± 0.054 for the second.

VVGAGTEWMVEV and VVGAWGRGGCGG are within error of each other in protein stability index: 0.642 ± 0.025 for the first, 0.633 ± 0.01 for the second.

VVGGRWVVWSFK and VVGQGYDSGIRY are within error of each other in protein stability index: 0.688 ± 0.018 for the first, 0.724 ± 0.024 for the second.

VVGRGGLICGRW and VVGSVQQSSDSC are within error of each other in protein stability index: 0.625 ± 0.072 for the first, 0.692 ± 0.07 for the second.

First: VVIPLDKGVIVQ
Second: VVKEGGGCREGR
The protein stability index of the first is lower: 0.56 ± 0.014 for the first, 0.64 ± 0.028 for the second.

VVKGGGLGRRAG and VVLFGAGGSWGG are within error of each other in protein stability index: 0.66 ± 0.089 for the first, 0.726 ± 0.063 for the second.
